System: Abp1 PPIs
Test: DHFR-PCA of Abp1 SH3-swapped baits (Fig. 2B-D, S2C, S2F);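 as to Protein-protein interaction distance between Abp1 SH3-swapped baits, to ABP1: Euclidean distance between DHFR-PCA score profiles of the baits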;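 as to Protein-protein interaction distance between Abp1 SH3-swapped baits, to BEM1-2: Euclidean distance between DHFR-PCA score profiles of the baits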;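 as to Protein-protein interaction distance between Abp1 SH3-swapped baits, to BOI1: Euclidean distance between DHFR-PCA score profiles of the baits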;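 as to Protein-protein interaction distance between Abp1 SH3-swapped baits, to BZZ1-1: Euclidean distance between DHFR-PCA score profiles of the baits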
Type: cell-based, Saccharomyces cerevisiae
Outline: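 Yeast DHFR-PCA in which Abp1 baits, carrying their SH3 replaced by CRISPR–Cas9 with one of 27 yeast SH3s or human CTTN, HCLS1 or DBNL SH3s, were mated against 575 SH3-associated DHFR F[3] preys plus 40 negative controls. Four tests were run per PPI. Diploids were selected twice (48 h, 30 °C), then grown 4 days on PCA selection media.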

[1] = number of PPIs, difference, Abp1 SH3-swapped with the listed SH3, Fig2D,S2F

B1: PIN3 (protein, UniProt Q06449 2-215, looked up)
[PSI+] inducibility protein 3: SASLINRSLTNIRTELDFLKGSNVISNDVYDQINKSLPAKWDPANAPRNASPASLEYVEALYQFDPQQDGDLGLKPGDKVQLLEKLSPEWYKGSCNGRTGIFPANYVKPAFSGSNGPSNLPPPPQYKAQELQQIPTQNSAASSYQQQPFPPPSTNYYQQPQQQPQQAPPPQQQQQQQQHQSSHSHLKSFGSKLGNAAIFGAGASIGSDIVNNIF
- Protein-protein interaction distance between Abp1 SH3-swapped baits, to ABP1 (Abp1 bait with swapped SH3, distance to bait with ABP1 SH3, sheet Fig2C): 11.43
- Protein-protein interaction distance between Abp1 SH3-swapped baits, to BBC1 (distance to Abp1 bait with BBC1 SH3, sheet Fig2C): 11.25
- Protein-protein interaction distance between Abp1 SH3-swapped baits, to BEM1-1 (distance to Abp1 bait with BEM1-1 SH3, sheet Fig2C): 16.56
- Protein-protein interaction distance between Abp1 SH3-swapped baits, to BEM1-2 (distance to Abp1 bait with BEM1-2 SH3, sheet Fig2C): 33.69
- Protein-protein interaction distance between Abp1 SH3-swapped baits, to BOI1 (distance to Abp1 bait with BOI1 SH3, sheet Fig2C): 13.58
- Protein-protein interaction distance between Abp1 SH3-swapped baits, to BOI2 (distance to Abp1 bait with BOI2 SH3, sheet Fig2C): 17.21
- Protein-protein interaction distance between Abp1 SH3-swapped baits, to BUD14 (distance to Abp1 bait with BUD14 SH3, sheet Fig2C): 19.7
- Protein-protein interaction distance between Abp1 SH3-swapped baits, to BZZ1-1 (distance to Abp1 bait with BZZ1-1 SH3, sheet Fig2C): 8.164
- Protein-protein interaction distance between Abp1 SH3-swapped baits, to BZZ1-2 (distance to Abp1 bait with BZZ1-2 SH3, sheet Fig2C): 13.53
- Protein-protein interaction distance between Abp1 SH3-swapped baits, to CDC25 (distance to Abp1 bait with CDC25 SH3, sheet Fig2C): 28.09
- Protein-protein interaction distance between Abp1 SH3-swapped baits, to CTTN (distance to Abp1 bait with CTTN SH3, sheet Fig2C): 14.08
- Protein-protein interaction distance between Abp1 SH3-swapped baits, to CYK3 (distance to Abp1 bait with CYK3 SH3, sheet Fig2C): 28.76
- Protein-protein interaction distance between Abp1 SH3-swapped baits, to DBNL (distance to Abp1 bait with DBNL SH3, sheet Fig2C): 8.074
- Protein-protein interaction distance between Abp1 SH3-swapped baits, to FUS1 (distance to Abp1 bait with FUS1 SH3, sheet Fig2C): 21.08
- Protein-protein interaction distance between Abp1 SH3-swapped baits, to HCLS1 (distance to Abp1 bait with HCLS1 SH3, sheet Fig2C): 8.844
- Protein-protein interaction distance between Abp1 SH3-swapped baits, to HOF1 (distance to Abp1 bait with HOF1 SH3, sheet Fig2C): 32.38
- Protein-protein interaction distance between Abp1 SH3-swapped baits, to HSE1 (distance to Abp1 bait with HSE1 SH3, sheet Fig2C): 9.808
- Protein-protein interaction distance between Abp1 SH3-swapped baits, to LSB1 (distance to Abp1 bait with LSB1 SH3, sheet Fig2C): 5.513
- Protein-protein interaction distance between Abp1 SH3-swapped baits, to LSB3 (distance to Abp1 bait with LSB3 SH3, sheet Fig2C): 5.817
- Protein-protein interaction distance between Abp1 SH3-swapped baits, to MYO3 (distance to Abp1 bait with MYO3 SH3, sheet Fig2C): 8.374
- Protein-protein interaction distance between Abp1 SH3-swapped baits, to MYO5 (distance to Abp1 bait with MYO5 SH3, sheet Fig2C): 6.67
- Protein-protein interaction distance between Abp1 SH3-swapped baits, to NBP2 (distance to Abp1 bait with NBP2 SH3, sheet Fig2C): 18.8
- Protein-protein interaction distance between Abp1 SH3-swapped baits, to PEX13 (distance to Abp1 bait with PEX13 SH3, sheet Fig2C): 5.433
- Protein-protein interaction distance between Abp1 SH3-swapped baits, to PIN3 (distance to Abp1 bait with PIN3 SH3, sheet Fig2C): 0.00
- Protein-protein interaction distance between Abp1 SH3-swapped baits, to RVS167 (distance to Abp1 bait with RVS167 SH3, sheet Fig2C): 5.294
- Protein-protein interaction distance between Abp1 SH3-swapped baits, to SDC25 (distance to Abp1 bait with SDC25 SH3, sheet Fig2C): 34.35
- Protein-protein interaction distance between Abp1 SH3-swapped baits, to SHO1 (distance to Abp1 bait with SHO1 SH3, sheet Fig2C): 9.004
- Protein-protein interaction distance between Abp1 SH3-swapped baits, to SLA1-1 (distance to Abp1 bait with SLA1-1 SH3, sheet Fig2C): 30.57
- Protein-protein interaction distance between Abp1 SH3-swapped baits, to SLA1-2 (distance to Abp1 bait with SLA1-2 SH3, sheet Fig2C): 21.49
- Protein-protein interaction distance between Abp1 SH3-swapped baits, to SLA1-3 (distance to Abp1 bait with SLA1-3 SH3, sheet Fig2C): 6.016
- Protein-protein interaction distance between Abp1 SH3-swapped baits, to YSC84 (distance to Abp1 bait with YSC84 SH3, sheet Fig2C): 5.862
- PPIs gained by Abp1 - SH3-dependent PPIs gained by Abp1 [1]: 29
- SH3-dependent PPIs - SH3-dependent PPIs gained by Abp1 [1]: 13
- SH3-dependent PPIs gained by Abp1 (number of PPIs, Abp1 SH3-swapped with the listed SH3, DHFR-PCA, Fig2D,S2F): 0

Reference: article PMC7954794, “Protein context shapes the specificity of SH3 domain-mediated interactions in vivo” (Nature Communications, 2021)
